The values that follow come from US20250122306A1 (SUTRO BIOPHARMA, published 2025).

Experiment [1] deals with T1, human tissue factor on cells (human, UniProt P13726 33-295).
T1 construct: cell-surface TF, transfected (HEK293T-humanTF) or endogenous (tumour lines, keratinocytes); the cell line is named under assay; also called HEK293T-humanTF; TF on BxPC3, primary human keratinocytes, NCI-H292, HCC1954, NCI-H1975
Nature of the experiment: flow cytometry on HEK293T-humanTF cells, one-site fit of MFI. The source says: (§1) HEK293T, BxPC3 cells (TF positive) and NCI-H1703 (TF negative) cells were obtained from ATCC (American Type Culture Collection) and maintained in DMEM: F12 (1:1), high glucose (Corning) supplemented with 10% heat-inactivated fetal bovine serum (ThermoScientific), 1× Penicillin/Streptomycin (Corning) and 2 mmol glutamax (Thermo Fisher Scientific). To generate cells that stably expressing human tissue factor (HEK293T-humanTF) or cynomolgus tissue factor (HEK293T-cynoTF), HEK293T cells were transfected with plasmid vectors that contain the corresponding protein sequence and stable clones were selected with puromycin.
(§2) For a fluorescence-activated cell sorting (FACS) cell-binding assay, cells were collected by Accutase and counted by the Vi-CELL Cell Viability Analyzersharvested and, then re-suspended in FACS buffer (DPBS buffer supplemented with 1% bovine serum albumin). A total of 200,000 cells in 100 μL were incubated on ice with 100 μL of anti-TF antibodies in each well of a 96-well plate. Cells were washed twice with ice-cold FACS buffer and then incubated on ice for 60 mins with 5 μg/mL Alexa 647-labeled donkey anti-human Fc antibody (Jackson ImmunoResearch). Unstained cells and cells stained with secondary antibody alone were used as controls. Cells were washed twice with FACS buffer and analyzed using a BD FACS Canto system. Geometric mean fluorescence intensities (MFI) were fitted using non-linear regression analysis with one site specific binding equation on GraphPad Prism (GraphPad Software; La Jolla, CA).
On the technique in general: In flow cytometry, cells or beads pass a laser one at a time.

Experiment [2] has as its target T2, human tissue factor (human TF, Lake Pharma) (human, UniProt P13726 33-251, limits assumed).
T2 construct: bought recombinant antigen; also called CD142
Put plainly: Biacore SPR kinetics, antibody captured on anti-Fc, 1:1 Langmuir fit. Here is the method: (§3) Anti-Fc polyclonal antibodies were immobilized onto a CM4 chip (Cytiva #BR100534) using amine coupling chemistry (Human Antibody Capture Kit, Cytiva #BR100839). The immobilization steps were carried out at a flow rate of 25 μL/min in 1×HBS-EP+buffer (Cytiva #BR100669). The sensor surfaces were activated for 7 min with a mixture of N-hydroxysuccinimide (NHS, 0.05 M) and 1-ethyl-3-(3-dimethylaminopropyl)-carbodiimide (EDC, 0.2 M). The anti-Fc polyclonal antibodies were injected over all 4 flow cells at a concentration of 25 μg/mL in 10 mM sodium acetate, pH 4.5, for 7 min. Ethanolamine (1 M, pH 8.5) was injected for 7 min to block any remaining activated groups.
(§4) Off-rate and kinetic binding experiments were performed at 25° C. using 1×HBS-EP+buffer. Antibodies were injected over the anti-Fc surface at a concentration of 3 μg/mL for 12 seconds at a flow rate of 10 μL/min on flow cells 2, 3 and 4, followed by a buffer wash for 30 seconds at the same flow rate. Single point off-rate analysis was carried out using an antigen concentration of 100 nM. […] After capturing ligand (antibody) on the anti-Fc surface, the analyte (human TF, Lake Pharma; cynomolgus TF, Sino Bio #90885-C08H; mouse TF, R&D Systems #3178-PA) was bound for 180 seconds, followed by a 420 second dissociation phase at a flow rate of […]. Between each ligand capture and analyte binding cycle, regeneration was carried out using 2 injections of 10 mM glycine pH 2.0 for 30 seconds at 30 μL/min, followed by a 30 second buffer wash step.
(§5) The data were fit with the Biacore T200 Evaluation software, using a 1:1 Langmuir binding model. KD (affinity, nM) was determined as a ratio of the kinetic rate constants calculated from the fits of the association and dissociation phases.
In general terms: Surface plasmon resonance follows binding to a sensor surface in real time, without labels.

The target in experiment [3] is T3, cynomolgus tissue factor (cynomolgus TF, Sino Bio #90885-C08H) (cynomolgus monkey, UniProt P13726 33-251 (human entry)).
T3 construct: bought recombinant antigen; also called cyno TF
T3 chain: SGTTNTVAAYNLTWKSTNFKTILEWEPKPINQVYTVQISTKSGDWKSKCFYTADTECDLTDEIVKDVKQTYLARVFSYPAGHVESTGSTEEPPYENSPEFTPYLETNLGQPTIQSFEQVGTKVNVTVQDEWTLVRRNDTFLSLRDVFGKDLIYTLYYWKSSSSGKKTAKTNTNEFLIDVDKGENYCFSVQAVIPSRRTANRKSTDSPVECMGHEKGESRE
Described as above. Here is the method: as §3, §4, §5

Experiment [4] concerns the target T4, cynomolgus tissue factor on HEK293T-cynoTF cells (cynomolgus monkey, UniProt P13726 33-294 (human entry)).
T4 construct: stably transfected HEK293T cells
T4 chain: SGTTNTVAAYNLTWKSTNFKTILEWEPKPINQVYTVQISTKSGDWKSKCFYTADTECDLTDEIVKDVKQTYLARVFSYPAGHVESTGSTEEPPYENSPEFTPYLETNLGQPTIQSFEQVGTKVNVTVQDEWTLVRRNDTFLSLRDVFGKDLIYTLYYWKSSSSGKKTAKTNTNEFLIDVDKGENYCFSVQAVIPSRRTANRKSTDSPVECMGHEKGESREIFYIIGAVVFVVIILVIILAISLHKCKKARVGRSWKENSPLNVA
Put plainly: flow cytometry on HEK293T-cynoTF cells, one-site fit of MFI.
Excerpt: as §1, §2

Experiment [5] addresses T1, human tissue factor on cells. Put plainly: flow cytometry on primary human keratinocytes, one-site fit of MFI. Here is the method:
To evaluate antibody binding activity of the anti-TF antibodies on the adult primary keratinocytes, a total of 100,000 keratinocytes per well were incubated on ice with serial dilutions of anti-TF antibodies in FACS buffer (PBS buffer supplemented with 1% bovine serum albumin, 0.05% sodium azide) for 60 minutes. Cells were washed twice with ice-cold FACS buffer and then incubated with 5 microgram/mL Alexa 647 labeled donkey anti-human Fc antibody (Jackson ImmunoResearch, West Grove, PA) on ice for another 60 minutes. Unstained cells and cells stained with secondary antibodies alone were used as controls. Samples were then washed twice using FACS buffer and analyzed using an Attune flow cytometer (Thermo Fisher). Geometric mean fluorescence intensities were fitted using non-linear regression analysis with one site specific binding equation on GraphPad Prism.

T2 sequence (P13726 33-251 limits assumed): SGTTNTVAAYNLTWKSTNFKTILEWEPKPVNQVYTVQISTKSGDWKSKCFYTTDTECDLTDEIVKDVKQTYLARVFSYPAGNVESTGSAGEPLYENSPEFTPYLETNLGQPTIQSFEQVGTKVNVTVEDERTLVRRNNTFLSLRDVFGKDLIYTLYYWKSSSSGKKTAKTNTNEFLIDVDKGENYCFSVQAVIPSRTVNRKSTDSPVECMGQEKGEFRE

B1: mAb 37: aTF_2842-B01_Hc3_Y180/F404TAG pAzMeF; aTF_2842-B01_Lc2 (antibody, IgG1, V domains shown)
VH: EVQLVESGGGLVQPGGSLRLSCAASGFSISSYDMSWVRQAPGKGLEWIGIIGSNGRTYYPDSVKGRFTISRDNSKNTVTLQMNSLRAEDTAVYYCARGLYDGTGNIWGQGTLVTVSS
VL: ELVMTQSPPTLSLSPGERVTLSCRASQSVYGNNWLSWYQQKPGQAPRLLIYGASKLATSIPARFSGSGSGTQFTLTISSLQPEDFAVYYCQGTYYSGDWYFAFGQGTKVEIKR
modifications: pAzMeF at Y180 and F404 (EU), * in the sequence
notes: unconjugated full-length IgG1/kappa, cell-free expressed; also called 2842-B01 HC3/LC2; 2842-B01-HC3/LC2 Y180/F404
What is called Kd is the equilibrium constant for the complex coming apart. The term koff denotes the rate constant with which the complex falls apart. A lower koff goes with a long-lived complex. For orientation: kon means a measure of how fast the partners come together. Lower therefore signals slower complex formation. As to B1, the “Bmax (MFI)” value in experiment [1] amounted to 334000 MFI; in experiment [4], 493000 MFI. In addition, the Kd in experiment [1] turned out to be 3.9 nM; in experiment [2], 7.3 nM; in experiment [3] it was 15.6 nM; in experiment [4], 3.9 nM; in experiment [5], 24 nM. In addition, the koff in experiment [2] turned out to be 0.000418 s⁻¹; in experiment [3], 0.00113 s⁻¹. Moreover, the results for the kon in experiment [2] and in experiment [3] were 57200 M⁻¹ s⁻¹ and 72400 M⁻¹ s⁻¹, respectively.
